Data taken from US20100184658A1 (published 2010).

Columns and labels:
Assay in all cases: cell-based or functional assay
[1] = molecular target: T1, GRK7 (UniProt Q8WTQ7 1-553, limits assumed)
T1 sequence (looked up): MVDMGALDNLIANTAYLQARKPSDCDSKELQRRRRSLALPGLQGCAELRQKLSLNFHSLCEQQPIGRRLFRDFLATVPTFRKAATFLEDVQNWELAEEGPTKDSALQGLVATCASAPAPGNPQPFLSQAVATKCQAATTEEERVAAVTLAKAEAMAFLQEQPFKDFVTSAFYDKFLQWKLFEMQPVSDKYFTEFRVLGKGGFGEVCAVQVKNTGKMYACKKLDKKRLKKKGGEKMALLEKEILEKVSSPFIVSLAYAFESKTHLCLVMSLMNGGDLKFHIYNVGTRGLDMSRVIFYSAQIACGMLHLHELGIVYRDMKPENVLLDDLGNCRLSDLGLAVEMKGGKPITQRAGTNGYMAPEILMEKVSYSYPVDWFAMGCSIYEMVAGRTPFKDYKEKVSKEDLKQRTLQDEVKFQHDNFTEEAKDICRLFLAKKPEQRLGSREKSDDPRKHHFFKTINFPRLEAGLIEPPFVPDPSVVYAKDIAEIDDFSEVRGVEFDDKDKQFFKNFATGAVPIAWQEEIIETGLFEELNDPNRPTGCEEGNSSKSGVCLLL

[2] = molecular target: T2, PDK1 (human (printed as (h)), UniProt O15530 1-556, limits assumed)
T2 sequence (looked up): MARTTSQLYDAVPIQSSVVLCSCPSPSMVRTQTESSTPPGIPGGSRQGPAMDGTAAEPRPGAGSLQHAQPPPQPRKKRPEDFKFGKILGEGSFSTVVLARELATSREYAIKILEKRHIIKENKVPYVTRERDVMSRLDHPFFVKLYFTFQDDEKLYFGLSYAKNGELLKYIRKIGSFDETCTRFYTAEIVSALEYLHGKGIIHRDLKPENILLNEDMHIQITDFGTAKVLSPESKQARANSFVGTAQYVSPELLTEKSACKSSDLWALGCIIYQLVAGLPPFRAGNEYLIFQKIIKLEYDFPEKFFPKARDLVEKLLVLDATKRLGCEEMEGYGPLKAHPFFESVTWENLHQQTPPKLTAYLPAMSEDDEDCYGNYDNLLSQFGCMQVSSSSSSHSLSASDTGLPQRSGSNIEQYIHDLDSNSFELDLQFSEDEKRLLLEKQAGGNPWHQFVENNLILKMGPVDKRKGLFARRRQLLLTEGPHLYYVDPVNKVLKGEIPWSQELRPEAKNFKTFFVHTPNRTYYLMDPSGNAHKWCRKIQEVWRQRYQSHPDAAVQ

[3] = molecular target: BRAF V-raf murine sarcoma viral oncogene homolog B1 (UniProt P15056 416-766, limits assumed)
[4] = molecular target: MAP3K8 (COT) Mitogen-activated protein kinase kinase kinase 8 (UniProt P41279 30-397, limits assumed)
Chain of MAP3K8 (COT) Mitogen-activated protein kinase kinase kinase 8 (P41279 30-397 limits assumed): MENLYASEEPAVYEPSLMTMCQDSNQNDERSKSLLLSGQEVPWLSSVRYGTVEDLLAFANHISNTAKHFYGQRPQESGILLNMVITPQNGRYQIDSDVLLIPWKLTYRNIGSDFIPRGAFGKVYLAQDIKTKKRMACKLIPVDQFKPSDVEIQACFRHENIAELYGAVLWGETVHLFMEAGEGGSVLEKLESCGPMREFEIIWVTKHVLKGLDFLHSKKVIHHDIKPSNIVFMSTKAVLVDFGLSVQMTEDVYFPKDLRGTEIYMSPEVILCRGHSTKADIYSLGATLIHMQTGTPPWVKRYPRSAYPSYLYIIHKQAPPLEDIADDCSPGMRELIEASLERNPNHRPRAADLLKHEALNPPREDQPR

[5] = molecular target: PRKCB1 (PKC beta I) Protein kinase C, beta 1 (UniProt P05771 1-671)
Chain of PRKCB1 (PKC beta I) Protein kinase C, beta 1 (P05771 whole entry): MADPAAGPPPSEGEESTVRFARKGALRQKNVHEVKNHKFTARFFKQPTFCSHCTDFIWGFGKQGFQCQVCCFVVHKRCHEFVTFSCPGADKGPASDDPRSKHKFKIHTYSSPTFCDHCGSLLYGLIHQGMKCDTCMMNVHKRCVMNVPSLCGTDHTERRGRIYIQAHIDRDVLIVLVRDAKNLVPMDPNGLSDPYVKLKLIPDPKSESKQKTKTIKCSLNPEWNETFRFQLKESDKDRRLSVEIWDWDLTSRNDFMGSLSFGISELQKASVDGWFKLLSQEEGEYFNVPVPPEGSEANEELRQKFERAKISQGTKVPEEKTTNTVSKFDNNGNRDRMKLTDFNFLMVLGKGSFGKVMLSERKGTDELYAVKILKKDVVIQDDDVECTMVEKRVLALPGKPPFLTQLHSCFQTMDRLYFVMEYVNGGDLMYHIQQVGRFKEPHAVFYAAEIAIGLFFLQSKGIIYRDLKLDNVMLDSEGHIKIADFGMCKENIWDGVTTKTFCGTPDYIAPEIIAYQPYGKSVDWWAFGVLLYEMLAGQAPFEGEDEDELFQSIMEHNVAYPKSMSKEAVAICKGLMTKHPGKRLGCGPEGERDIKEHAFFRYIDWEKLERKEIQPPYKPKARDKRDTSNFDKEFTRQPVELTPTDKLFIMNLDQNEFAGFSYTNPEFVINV

[6] = molecular target: CAMK2D (CaMKII delta) (UniProt Q13557 1-499, limits assumed)
Chain of CAMK2D (CaMKII delta) (Q13557 whole entry, stated change not applied): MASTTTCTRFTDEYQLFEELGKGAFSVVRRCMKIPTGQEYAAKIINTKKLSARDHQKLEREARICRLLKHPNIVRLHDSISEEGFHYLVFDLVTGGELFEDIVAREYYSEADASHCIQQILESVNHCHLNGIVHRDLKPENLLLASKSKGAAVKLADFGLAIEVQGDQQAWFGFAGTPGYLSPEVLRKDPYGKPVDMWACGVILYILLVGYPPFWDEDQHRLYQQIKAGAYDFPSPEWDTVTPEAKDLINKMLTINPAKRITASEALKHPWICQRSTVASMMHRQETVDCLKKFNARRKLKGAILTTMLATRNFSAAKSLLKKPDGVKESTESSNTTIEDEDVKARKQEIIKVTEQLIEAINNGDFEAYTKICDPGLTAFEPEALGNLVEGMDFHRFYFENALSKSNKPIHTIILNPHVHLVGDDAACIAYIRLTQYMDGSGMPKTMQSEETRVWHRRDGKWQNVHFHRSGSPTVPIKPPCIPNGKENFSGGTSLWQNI

[7] = molecular target: T3, TYK2 (UniProt P29597 871-1187, limits assumed)
T3 sequence (looked up): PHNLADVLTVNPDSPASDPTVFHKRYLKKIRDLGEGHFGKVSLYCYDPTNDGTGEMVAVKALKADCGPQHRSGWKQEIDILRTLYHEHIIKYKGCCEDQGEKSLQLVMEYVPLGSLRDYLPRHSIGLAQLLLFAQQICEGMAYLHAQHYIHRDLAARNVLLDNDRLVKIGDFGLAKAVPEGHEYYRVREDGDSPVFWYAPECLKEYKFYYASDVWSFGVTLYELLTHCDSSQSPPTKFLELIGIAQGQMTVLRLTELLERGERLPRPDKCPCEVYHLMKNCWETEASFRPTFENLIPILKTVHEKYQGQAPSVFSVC

[8] = molecular target: TEK (Tie2) Tyrosine kinase, endothelial (UniProt Q02763 771-1124, limits assumed)
Chain of TEK (Tie2) Tyrosine kinase, endothelial (Q02763 771-1124 limits assumed): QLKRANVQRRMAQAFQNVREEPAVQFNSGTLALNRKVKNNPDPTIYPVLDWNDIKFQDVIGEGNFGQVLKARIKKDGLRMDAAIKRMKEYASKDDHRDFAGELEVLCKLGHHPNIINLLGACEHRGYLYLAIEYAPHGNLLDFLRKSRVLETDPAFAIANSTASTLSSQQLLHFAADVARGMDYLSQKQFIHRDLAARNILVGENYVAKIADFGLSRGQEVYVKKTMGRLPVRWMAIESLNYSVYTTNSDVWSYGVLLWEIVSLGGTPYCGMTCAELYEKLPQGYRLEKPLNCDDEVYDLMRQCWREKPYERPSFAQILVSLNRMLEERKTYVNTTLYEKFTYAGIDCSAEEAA

[9] = molecular target: CLK2 (UniProt P49760 1-499, limits assumed)
Chain of CLK2 (P49760 whole entry): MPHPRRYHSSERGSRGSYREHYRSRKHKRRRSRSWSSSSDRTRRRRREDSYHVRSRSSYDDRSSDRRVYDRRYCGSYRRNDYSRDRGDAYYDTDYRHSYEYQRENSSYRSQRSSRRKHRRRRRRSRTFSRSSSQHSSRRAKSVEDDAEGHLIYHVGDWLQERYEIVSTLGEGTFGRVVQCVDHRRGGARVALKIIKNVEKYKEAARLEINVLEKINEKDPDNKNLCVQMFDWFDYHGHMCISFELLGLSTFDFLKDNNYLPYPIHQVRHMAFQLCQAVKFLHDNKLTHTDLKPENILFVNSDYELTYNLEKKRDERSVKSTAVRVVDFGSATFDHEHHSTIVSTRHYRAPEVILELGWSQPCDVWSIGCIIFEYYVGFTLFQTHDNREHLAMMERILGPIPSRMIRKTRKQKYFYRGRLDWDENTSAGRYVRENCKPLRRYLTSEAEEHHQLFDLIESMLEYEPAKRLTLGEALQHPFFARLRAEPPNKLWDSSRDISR

[10] = molecular target: ABL1 E255K (UniProt P00519 1-1130, limits assumed)
Chain of ABL1 E255K (P00519 whole entry E255K): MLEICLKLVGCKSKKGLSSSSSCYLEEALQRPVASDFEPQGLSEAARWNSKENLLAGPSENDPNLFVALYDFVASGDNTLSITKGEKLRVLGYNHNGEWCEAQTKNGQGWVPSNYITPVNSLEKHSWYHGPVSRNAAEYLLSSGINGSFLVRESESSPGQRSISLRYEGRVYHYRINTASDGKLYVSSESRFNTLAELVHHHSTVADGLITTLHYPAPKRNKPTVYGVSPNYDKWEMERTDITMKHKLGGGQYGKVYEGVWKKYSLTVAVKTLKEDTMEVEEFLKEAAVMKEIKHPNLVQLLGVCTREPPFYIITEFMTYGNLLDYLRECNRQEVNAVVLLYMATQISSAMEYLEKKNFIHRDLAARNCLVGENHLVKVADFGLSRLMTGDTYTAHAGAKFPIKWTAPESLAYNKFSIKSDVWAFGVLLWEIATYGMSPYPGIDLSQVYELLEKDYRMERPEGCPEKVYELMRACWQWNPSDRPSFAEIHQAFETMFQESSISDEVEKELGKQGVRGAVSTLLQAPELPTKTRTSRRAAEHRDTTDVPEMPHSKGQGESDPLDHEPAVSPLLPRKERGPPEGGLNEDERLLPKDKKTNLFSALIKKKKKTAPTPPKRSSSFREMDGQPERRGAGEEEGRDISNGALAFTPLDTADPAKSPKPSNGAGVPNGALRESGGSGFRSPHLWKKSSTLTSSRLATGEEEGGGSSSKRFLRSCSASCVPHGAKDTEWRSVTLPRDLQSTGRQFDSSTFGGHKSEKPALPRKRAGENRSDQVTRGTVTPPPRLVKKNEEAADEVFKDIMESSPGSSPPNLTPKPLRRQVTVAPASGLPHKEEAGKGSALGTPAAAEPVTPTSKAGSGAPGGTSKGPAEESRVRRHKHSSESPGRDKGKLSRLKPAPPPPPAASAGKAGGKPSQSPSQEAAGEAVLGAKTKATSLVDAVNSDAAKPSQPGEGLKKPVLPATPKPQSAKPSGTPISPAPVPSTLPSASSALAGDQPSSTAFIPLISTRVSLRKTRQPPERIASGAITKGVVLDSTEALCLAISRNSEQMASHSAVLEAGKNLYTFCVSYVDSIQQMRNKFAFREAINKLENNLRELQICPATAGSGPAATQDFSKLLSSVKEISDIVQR

[11] = molecular target: PKN1 (PRK1) (UniProt Q16512 1-942, limits assumed)
Chain of PKN1 (PRK1) (Q16512 whole entry): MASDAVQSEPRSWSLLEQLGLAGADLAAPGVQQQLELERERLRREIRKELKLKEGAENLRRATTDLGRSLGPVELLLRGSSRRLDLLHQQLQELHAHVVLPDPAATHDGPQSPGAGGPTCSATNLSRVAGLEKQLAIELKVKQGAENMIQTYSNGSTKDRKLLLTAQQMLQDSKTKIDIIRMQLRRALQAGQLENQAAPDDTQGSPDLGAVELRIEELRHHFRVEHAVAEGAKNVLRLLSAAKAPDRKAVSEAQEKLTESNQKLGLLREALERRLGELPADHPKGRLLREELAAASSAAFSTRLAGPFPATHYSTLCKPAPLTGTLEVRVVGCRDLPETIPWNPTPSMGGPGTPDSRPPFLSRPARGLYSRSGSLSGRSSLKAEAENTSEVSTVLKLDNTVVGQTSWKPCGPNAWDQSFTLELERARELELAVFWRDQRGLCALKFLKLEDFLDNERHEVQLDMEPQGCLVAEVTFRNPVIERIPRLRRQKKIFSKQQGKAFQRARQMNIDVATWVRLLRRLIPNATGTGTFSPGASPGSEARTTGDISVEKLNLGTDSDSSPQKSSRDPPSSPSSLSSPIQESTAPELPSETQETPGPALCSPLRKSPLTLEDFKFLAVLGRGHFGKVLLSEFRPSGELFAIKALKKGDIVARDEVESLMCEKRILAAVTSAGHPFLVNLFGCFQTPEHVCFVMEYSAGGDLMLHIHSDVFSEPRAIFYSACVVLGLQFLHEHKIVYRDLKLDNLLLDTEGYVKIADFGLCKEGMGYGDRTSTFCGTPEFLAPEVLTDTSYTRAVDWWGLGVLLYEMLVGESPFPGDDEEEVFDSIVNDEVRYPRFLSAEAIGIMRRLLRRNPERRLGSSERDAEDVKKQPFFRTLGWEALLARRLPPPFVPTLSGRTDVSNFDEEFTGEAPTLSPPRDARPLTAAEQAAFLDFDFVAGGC

[12] = molecular target: MAPKAPK2 Mitogen-activated protein kinase-activated protein kinase 2 (UniProt P49137 1-400, limits assumed)
Chain of MAPKAPK2 Mitogen-activated protein kinase-activated protein kinase 2 (P49137 whole entry): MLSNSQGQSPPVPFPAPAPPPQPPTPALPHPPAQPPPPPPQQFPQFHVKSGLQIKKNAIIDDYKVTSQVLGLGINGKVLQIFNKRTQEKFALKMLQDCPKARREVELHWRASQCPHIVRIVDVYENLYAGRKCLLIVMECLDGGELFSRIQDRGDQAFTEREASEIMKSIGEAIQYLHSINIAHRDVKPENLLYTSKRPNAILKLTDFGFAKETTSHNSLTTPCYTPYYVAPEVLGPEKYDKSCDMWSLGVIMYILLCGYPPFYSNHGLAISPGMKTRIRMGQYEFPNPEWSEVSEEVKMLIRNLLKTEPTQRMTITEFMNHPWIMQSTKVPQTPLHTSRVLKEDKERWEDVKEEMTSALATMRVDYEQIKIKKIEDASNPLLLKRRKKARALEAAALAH

[13] = molecular target: PRKCD (PKC delta) (UniProt Q05655 1-676, limits assumed)
[14] = molecular target: T4, ADRBK1 (GRK2) (UniProt P25098 1-689, limits assumed)
T4 sequence (looked up): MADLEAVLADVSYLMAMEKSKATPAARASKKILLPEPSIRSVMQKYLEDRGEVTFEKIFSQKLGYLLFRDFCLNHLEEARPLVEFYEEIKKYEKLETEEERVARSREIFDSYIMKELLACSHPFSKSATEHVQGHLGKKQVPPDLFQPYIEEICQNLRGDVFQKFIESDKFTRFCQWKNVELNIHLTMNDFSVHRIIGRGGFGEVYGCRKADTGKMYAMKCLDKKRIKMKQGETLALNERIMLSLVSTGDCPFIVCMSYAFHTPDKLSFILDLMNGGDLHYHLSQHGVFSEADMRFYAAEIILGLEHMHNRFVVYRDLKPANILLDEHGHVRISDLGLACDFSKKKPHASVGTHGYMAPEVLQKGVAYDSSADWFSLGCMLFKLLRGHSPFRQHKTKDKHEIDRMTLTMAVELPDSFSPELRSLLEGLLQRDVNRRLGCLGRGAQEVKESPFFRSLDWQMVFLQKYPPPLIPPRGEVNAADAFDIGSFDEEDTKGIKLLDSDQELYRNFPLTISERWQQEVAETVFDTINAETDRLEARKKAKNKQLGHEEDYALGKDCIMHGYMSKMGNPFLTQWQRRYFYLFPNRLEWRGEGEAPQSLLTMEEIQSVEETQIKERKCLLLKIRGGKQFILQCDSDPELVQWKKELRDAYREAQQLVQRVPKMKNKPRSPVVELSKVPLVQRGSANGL
Note: test concentration or dose not given here.

SGRPPMIVWFNRPFLIAVSHTHGQTILFMAKVINPVGA [D3 peptide]
% Inhibition mean [1]: 49.9% | % Inhibition mean [2]: 64% | % Inhibition mean [3]: 100% | % Inhibition mean [4]: 98.6% | % Inhibition mean [5]: 88% | % Inhibition mean [6]: 72.5% | % Inhibition mean [7]: 70.5% | % Inhibition mean [8]: 67% | % Inhibition mean [9]: 65.9% | % Inhibition mean [10]: 65.6% | % Inhibition mean [11]: 64% | % Inhibition mean [12]: 58% | % Inhibition mean [13]: 57.4% | % Inhibition mean [14]: 56.1%
